In patent publication US20230212319A1, “NOVEL ANTIGEN BINDING DOMAINS AND SYNTHETIC ANTIGEN RECEPTORS INCORPORATING THE SAME” (University of Southern California, priority 2020, published 2023):

B1: 21853 (protein)
chain: MALPVTALLLPLALLLHAARPSYVLTQPPSVSVAPGQTARITCGGNNIGGKSVHWYQQPPGQAPVVVVYDDSDRPSGIPERFSGSNSGNTATLTISRVEAGDEAVYYCQVWDSSSDHVVFGGGTKLTVLLEDLKNVFPPEVAVFEPSEAEISHTQKATLVCLATGFYPDHVELSWWVNGKEVHSGVCTDPQPLKEQPALNDSRYCLSSRLRVSATFWQNPRNHFRCQVQFYGLSENDEWTQDRAKPVTQIVSAEAWGRADCGFTSESYQQGVLSATILYEILLGKATLYAVLVSALVLMAMVKRKDSRGRAKRSGSGATNFSLLKQAGDVEENPGPTSMDWIWRILFLVGAATGAHSFEQLQLQESGPGLVKPSETLSLTCTVSGGSISSSSYFWGWIRQPPGKGLEWIGSIYYSGITYYNPSLKSRVTISVDTSKNQFSLKLSSVTAADTAVYYCARHDGAVAGLFDYWGQGTLVTVSSATRIQNPDPAVYQLRDSKSSDKSVCLFTDFDSQTNVSQSKDSDVYITDKCVLDMRSMDFKSNSAVAWSNKSDFACANAFNNSIIPEDTFFPSPESSCDVKLVEKSFETDTNLNFQNLSVIGFRILLLKVAGFNLLMTLRLWSS
B2: SEQ ID NO: 22248: Herceptin mimotag tagged SAR (protein)
chain: MALPVTALLLPLALLLHAARPDIQMTQSPSSLSASVGDRVTITCKASDHINNWLAWYQQKPGQAPKLLIYGATTLETGVPSRFSGSGSGTDYTLTISSLQPEDFATYYCQQSWNTPWTFGQGTKLEIKRLEDLKNVFPPEVAVFEPSEAEISHTQKATLVCLATGFYPDHVELSWWVNGKEVHSGVCTDPQPLKEQPALNDSRYCLSSRLRVSATFWQNPRNHFRCQVQFYGLSENDEWTQDRAKPVTQIVSAEAWGRADCGFTSESYQQGVLSATILYEILLGKATLYAVLVSALVLMAMVKRKDSRGRAKRSGSGATNFSLLKQAGDVEENPGPTSATMDWIWRILFLVGAATGAHSGPQLGPYELWELSHGSGPLGIAGIFEQVQLQQPGAELVKPGASVKMSCKASGYAFSSYWINWMKQKPGQGLEWIGQIYPGDGDTNYNGKFKGRATLTADTSSSTAYMQLSSLTSEDSAVYFCARSITTVVGCAMDYWGQGTSVTVSSTRIQNPDPAVYQLRDSKSSDKSVCLFTDFDSQTNVSQSKDSDVYITDKCVLDMRSMDFKSNSAVAWSNKSDFACANAFNNSIIPEDTFFPSPESSCDVKLVEKSFETDTNLNFQNLSVIGFRILLLKVAGFNLLMTLRLWSSRAKRSGSGVKQTLNFDLLKLAGDVESNPGPSRGHMTEYKPTVRLATRDDVPRAVRTLAAAFADYPATRHTVDPDRHIERVTELQELFLTRVGLDIGKVWVADDGAAVAVWTTPESVEAGAVFAEIGPRMAELSGSRLAAQQQMEGLLAPHRPKEPAWFLATVGVSPDHQGKGLGSAVVLPGVEAAERAGVPAFLETSAPRNLPFYERLGFTVTADVEVPEGPRTWCMTRKPGA
modifications: Herceptin mimotag
B3: 22007 (protein)
chain: MALPVTALLLPLALLLHAARPQLQLQESGPGLVKPSETLSLTCTVSGDSISSGDYYWGWIRQPPGKGLEWIGHIYYSGVTYYNPSLKSRVTISVDTSRNQFSLKLSSVTAADTAVYYCTREDSSNWRSRGQGTLVTVSSLEDLKNVFPPEVAVFEPSEAEISHTQKATLVCLATGFYPDHVELSWWVNGKEVHSGVCTDPQPLKEQPALNDSRYCLSSRLRVSATFWQNPRNHFRCQVQFYGLSENDEWTQDRAKPVTQIVSAEAWGRADCGFTSESYQQGVLSATILYEILLGKATLYAVLVSALVLMAMVKRKDSRGRAKRSGSGATNFSLLKQAGDVEENPGPTSMDWIWRILFLVGAATGAHSFEVQLVESGGGLVQPGGSLRLSCAASGFNIKDTCIGWVRRAPGKEEELVADICPYKGSTRYADSVKGRFTISADTSKNTAYLQMNSLRAEDTAVYYCAIVSARDGYYNYWGQGTTVTVSSTRIQNPDPAVYQLRDSKSSDKSVCLFTDFDSQTNVSQSKDSDVYITDKCVLDMRSMDFKSNSAVAWSNKSDFACANAFNNSIIPEDTFFPSPESSCDVKLVEKSFETDTNLNFQNLSVIGFRILLLKVAGFNLLMTLRLWSSRAKRSGSGVKQTLNFDLLKLAGDVESNPGPSRGHMTEYKPTVRLATRDDVPRAVRTLAAAFADYPATRHTVDPDRHIERVTELQELFLTRVGLDIGKVWVADDGAAVAVWTTPESVEAGAVFAEIGPRMAELSGSRLAAQQQMEGLLAPHRPKEPAWFLATVGVSPDHQGKGLGSAVVLPGVEAAERAGVPAFLETSAPRNLPFYERLGFTVTADVEVPEGPRTWCMTRKPGA
B4: SEQ ID NO: 22247: Herceptin mimotag tagged SAR (protein)
chain: MALPVTALLLPLALLLHAARPACPQLGPYELWELSHGTGAVVRGAEFDIQMTQSPSSLSASVGDRVTITCKASDHINNWLAWYQQKPGQAPKLLIYGATTLETGVPSRFSGSGSGTDYTLTISSLQPEDFATYYCQQSWNTPWTFGQGTKLEIKRLEDLKNVFPPEVAVFEPSKAEIAHTQKATLVCLATGFYPDHVELSWWVNGKEVHSGVCTDPQPLKEQPALNDSRYCLSSRLRVSATFWQNPRNHFRCQVQFYGLSENDEWTQDRAKPVTQIVSAEAWGRADCGITSASYHQGVLSATILYEILLGKATLYAVLVSALVLMAMVKRKDSRGRAKRSGSGATNFSLLKQAGDVEENPGPTSATMDWIWRILFLVGAATGAHSGPQVQLQESGGGLAQAGGSLRLSCAASGRTFSMGWFRQAPGKEREFVAAITYSGGSPYYASSVRGRFTISRDNAKNTVYLQMNSLKPEDTAVYYCAANPTYGSDWNAENWGQGTQVTVSSGSGGGGSGGGGSGGGGSFEQVQLQQPGAELVKPGASVKMSCKASGYAFSSYWINWMKQKPGQGLEWIGQIYPGDGDTNYNGKFKGRATLTADTSSSTAYMQLSSLTSEDSAVYFCARSITTVVGCAMDYWGQGTSVTVSSTRIQNPDPAVYQLRDSKSSDKSVCLFTDFDSQTNVSQSKDSDVYITDKCVLDMRSMDFKSNSAVAWSNKSDFACANAFNNSIIPEDTFFPSSDVPCDVKLVEKSFETDTNLNFQNLSVIGFRILLLKVAGFNLLMTLRLWSSRAKRSGSGVKQTLNFDLLKLAGDVESNPGPSRGHMTEYKPTVRLATRDDVPRAVRTLAAAFADYPATRHTVDPDRHIERVTELQELFLTRVGLDIGKVWVADDGAAVAVWTTPESVEAGAVFAEIGPRMAELSGSRLAAQQQMEGLLAPHRPKEPAWFLATVGVSPDHQGKGLGSAVVLPGVEAAERAGVPAFLETSAPRNLPFYERLGFTVTADVEVPEGPRTWCMTRKPGA
modifications: Herceptin mimotag
B5: 22093 (protein)
chain: MALPVTALLLPLALLLHAARPEVQLVESGGGLVQPGGSLRLSCAASGFNIKDTCIGWVRRAPGKEEELVAKICKYSGHTRYADSVKGRFTISADTSKNTAYLQMNSLRAEDTAVYYCAAVSVRDGHYNYWGQGTTVTVSSLEGKPIPNPLLGLDSTGSGEDLKNVFPPEVAVFEPSKAEIAHTQKATLVCLATGFYPDHVELSWWVNGKEVHSGVCTDPQPLKEQPALNDSRYCLSSRLRVSATFWQNPRNHFRCQVQFYGLSENDEWTQDRAKPVTQIVSAEAWGRADCGITSASYHQGVLSATILYEILLGKATLYAVLVSALVLMAMVKRKDSRGRAKRSGSGATNFSLLKQAGDVEENPGPTSTMALPVTALLLPLALLLHAARPDIQMTQSPSSLSASVGDRVTITCKASDHINNWLAWYQQKPGQAPKLLIYGATTLETGVPSRFSGSGSGTDYTLTISSLQPEDFATYYCQQSWNTPWTFGQGTKLEIKRGGGGSGGGGSGGGGSQVQLQQPGAELVKPGASVKMSCKASGYAFSSYWINWMKQKPGQGLEWIGQIYPGDGDTNYNGKFKGRATLTADTSSSTAYMQLSSLTSEDSAVYFCARSITTVVGCAMDYWGQGTSVTVSSTREQKLISEEDGSGIQNPDPAVYQLRDSKSSDKSVCLFTDFDSQTNVSQSKDSDVYITDKCVLDMRSMDFKSNSAVAWSNKSDFACANAFNNSIIPEDTFFPSSDVPCDVKLVEKSFETDTNLNFQNLSVIGFRILLLKVAGFNLLMTLRLWSSRAKRSGSGVKQTLNFDLLKLAGDVESNPGPSRGHMTEYKPTVRLATRDDVPRAVRTLAAAFADYPATRHTVDPDRHIERVTELQELFLTRVGLDIGKVWVADDGAAVAVWTTPESVEAGAVFAEIGPRMAELSGSRLAAQQQMEGLLAPHRPKEPAWFLATVGVSPDHQGKGLGSAVVLPGVEAAERAGVPAFLETSAPRNLPFYERLGFTVTADVEVPEGPRTWCMTRKPGA

Assays:
[1] = test system: L363-Luc cells; assay: L363 xenograft in NSG mice
[2] = JNG NFAT-GFP background GFP induction (tonic signaling)
[3] = test system: THP-1 cells; assay: JNG NFAT-GFP induction on co-culture with THP-1
[4] = test system: JNG cells expressing the constructs
[5] = test system: LoVo; assay: JNG NFAT-GFP assay, co-culture with LoVo cells; format: cell-based
[6] = test system: RAJI cells; assay: JNG assay, co-culture with RAJI cells; format: cell-based; settings: JNG cells expressing construct, co-culture with Raji
Procedure, shortened: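 Jurkat NFAT-GFP (JNG) cells stably transduced with SARs by lentivirus, with drug selection where the construct carried a resistance gene, then co-cultured with target cells at E:T ~1:2 for ~4–18 h. % GFP-positive cells measured by FACS against parental JNG; +/- to 5+ correspond to ~5–50% GFP-positive.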

[7] = test system: Nalm6 cells; assay: JNG assay, co-culture with Nalm6 cells; format: cell-based; settings: co-culture with Nalm6
Procedure, shortened: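 Jurkat NFAT-GFP reporter cells stably expressing lentivirally delivered SARs (puromycin or blasticidin selection) were cocultured with target cells at E:T ~1:2 for ~4–18 h. GFP was read by FACS, and % GFP+ cells were scored against parental reporter cells (+/-, +, 2+…5+ ≈ 5%, 10%, 20%…50%).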

Molecule | cytotoxicity when exposed to antibody [4] | NFAT-GFP ASSAY: LoVo [5] | NFAT-GFP ASSAY: Raji [6] | other results
B1 |  |  |  | disease control, L363 xenograft ([1]; 0.5 × 10^6 L363-Luc i.v., 3 days later 2 × 10^6 SAR-T i.v., compared to control T cells): superior disease control; survival, L363 xenograft ([1]; mouse, in vivo, iv): prolongation of survival; background GFP induction (tonic signaling) [2]: no background GFP induction; GFP induction upon co-culture with THP-1 [3]: no GFP induction
B2 | showed cytotoxicity |  |  | 
B3 |  | +/- (refer to approximately 5%, 10%, 20%, 30%, 40% and 50% GFP positive cells) | +/- (refer to approximately 5%, 10%, 20%, 30%, 40% and 50% GFP positive cells) | 
B4 | showed cytotoxicity |  |  | 
B5 |  | +/- (refer to approximately 5%, 10%, 20%, 30%, 40% and 50% GFP positive cells) | 2+ (refer to approximately 5%, 10%, 20%, 30%, 40% and 50% GFP positive cells) | NFAT-GFP ASSAY: Nalm6 [7]: + (refer to approximately 5%, 10%, 20%, 30%, 40% and 50% GFP positive cells)
